In paper PMC7565637 one finds pentameric CP-δ fibers per viral particle (fibers per viral particle) and stoichiometry N data, which are given here for four substances.

The target in experiment [1] is Orsay virus capsid protein (CP) (Orsay virus). Put plainly: co-sedimentation; infectious Orsay virions from culture supernatant of infected rde-1 worms, Triton X-100 treated, pelleted, banded on a 25% to 47.5% iodixanol step gradient (~1.3 g/ml); SDS-PAGE and Western blot with anti-CP antiserum, band intensities measured with Fiji. A general note: In western blotting, separated proteins are transferred to a membrane and probed.

Experiment [2] deals with Orsay δ(1–101) (Orsay virus). As to the kind of experiment: crystal structure; Orsay δ(1–101) crystallised by hanging drop, 0.1 M ammonium sulfate, 0.1 M sodium acetate pH 4.6, 25% PEG 4000, 20°C; space group P212121, five chains in the asymmetric unit; 1.8 Å.
Experiment [3] concerns the target full-length Le Blanc δ (Le Blanc virus). As to the kind of experiment: intact-protein LC-MS (reverse phase C3 column, Orbitrap); purified δ diluted to 200 ng/μl in 2% ACN, 0.1% FA; ZORBAX C3-300SB column, gradient 5% to 95% B; Orbitrap Fusion Lumos, positive mode; observed mass compared with the theoretical pentamer mass.
Experiment [4] deals with full-length Santeuil δ (Santeuil virus). Described as above.

With “Orsay CP-δ fusion protein (natural protein)”, the pentameric CP-δ fibers per viral particle (fibers per viral particle) in experiment [1] stood at 1.1. Consider Orsay δ(1–101) (domain or fragment), for which the stoichiometry N in experiment [2] is 5. In turn, “full-length Le Blanc δ (natural protein)” showed a stoichiometry N in experiment [3] of 5. As to “full-length Santeuil δ (natural protein)”, the stoichiometry N in experiment [4] was 5.

Usually stoichiometry N stands for the number of molecules, sites or subunits per partner or assembly.
